Target: T1, recombinant, fluorescently labeled CD19 (Homo sapiens, UniProt P15391, fluorescent label (dye and site not stated))
T1 construct: CD19, B-lymphocyte antigen; In the functional rows this molecule stands for CD19 on JeKo-1 WT cells
Assay: flow cytometry on cells; recombinant, fluorescently labeled CD19 on CAR-transduced T cells, compared to nontransduced T cells; methods in the Supporting Information
Conditions: one partner purified

T1 sequence (P15391 21-277): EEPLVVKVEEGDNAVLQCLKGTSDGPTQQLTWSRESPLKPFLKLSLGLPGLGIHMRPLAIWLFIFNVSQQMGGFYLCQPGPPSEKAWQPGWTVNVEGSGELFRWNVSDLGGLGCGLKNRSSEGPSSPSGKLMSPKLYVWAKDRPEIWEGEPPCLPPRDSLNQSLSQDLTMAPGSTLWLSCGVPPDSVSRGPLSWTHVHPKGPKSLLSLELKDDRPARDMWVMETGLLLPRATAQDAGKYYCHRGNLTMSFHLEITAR

B1: G228C CD19-CysCAR (anti-CD19 CAR with the scFv FMC63, CD19-41BB-CAR format, G228C) (scFv, V domains shown)
VH: EVKLQESGPGLVAPSQSLSVTCTVSGVSLPDYGVSWIRQPPRKGLEWLGVIWGSETTYYNSALKSRLTIIKDNSKSQVFLKMNSLQTDDTAIYYCAKHYYYGCSYAMDYWGQGTSVTVSS
VL: DIQMTQTTSSLSASLGDRVTISCRASQDISKYLNWYQQKPDGTVKLLIYHTSRLHSGVPSRFSGSGSGTDYSLTISNLEQEDIATYFCQQGNTLPYTFGGGTKLEIT
notes: scFv FMC63 (light chain domain, linker, heavy chain domain); CD8-derived hinge and transmembrane domains (Kymriah format); 4-1BB costimulatory domain (Kymriah format); Chimeric antigen receptor on T cells; source: primary human T cells, lentiviral transduction, on cells
  binding result: binds

— PMC12550615, “Bifunctional Cysteine-Engineered CAR‑T Cells Enable Thiol-Mediated Targeting to Overcome Antigen Escape in B Cell Lymphoma” (ACS Central Science, 2025)
